From patent US20210181204A1

Molecular target: eCry3.1Ab hybrid insecticidal protein
Assay: direct ELISA: eCry3.1Ab coated at 1 ug/ml, RGS-His HRP detection

B1: synNAPS13 variant Y44A (designed binder)
chain: RGSHHHHHHGSMVKVKFKRWGEEKEVDTSKILHVLRVGKYVRFSYDDNGKLGAGAVTEKDAPKELLDMLARAEREKK
  Binding (OD 450 nm): 0.4 OD 450 nm
